Source: the supplement of paper PMC10201428
± gives the standard deviation of the averaged measurements.

B1: library; a variant is named by its letters at N, in order (parent)
chain: ACATTTGTTGATACAACCATAAAATGATAATTACACCCATAAATTGATAATTATCACACCCANNNNNNNNNNNNNNCTCTGATCATAGTCAGACCAACATTGCTACGACCCGTATTCGCACCGACAC

Experiments:
[1] = variants of: B1; test: relative integration efficiency (T-RL orientation) vs wild-type transposon end (log2 (normalized fold change)); transposon end mutated: right end (5 bp flank + 75 bp right end); higher = more efficient transposition; conditions: with VchCAST RNA-guided transposition machinery (E. coli BL21(DE3) host, lacZ target)
Method: (§1)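 Pooled, barcoded VchCAST (Tn6677) mini-transposon donor libraries; each variable transposon-end sequence sits in a fixed pDonor mini-transposon context (10-bp barcode and cargo not included). Left- or right-end libraries were co-transformed with pEffector (TniQ-Cascade, TnsABC, lacZ crRNA, T7, 0.1 mM IPTG) into E. coli BL21(DE3) and grown 18 h at 37 C. T-LR and T-RL junction amplicons were sequenced; output/input barcode fold change was normalised to the mean of four wild-type barcodes and log2-transformed. Two biological replicates; zero-count/undetected variants carry floor values (-10 / -15), censored here. Barcode uncoupling by PCR recombination adds noise.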

[2] = variants of: B1; test: relative integration efficiency (T-LR orientation) vs wild-type transposon end (log2 (normalized fold change)); transposon end mutated: right end (5 bp flank + 75 bp right end); higher = more efficient transposition; conditions: with VchCAST RNA-guided transposition machinery (E. coli BL21(DE3) host, lacZ target)
Method: as §1

| Variant | relative integration efficiency (log2) [1] | relative integration efficiency (log2) [2] |
| --- | --- | --- |
| TAAATTGATATTGC T80C | -0.0687 ± 0.062 | -0.0985 ± 0.41 |
| TAAATTGATATTGC T80G | 0.183 ± 0.047 | 0.0082 ± 0.15 |
| TAAATTGATATTGC G26T | -0.472 ± 0.11 | -0.0416 ± 0.43 |
| TAAATTGATATTGC G26C | -1.71 ± 0.29 | -1.36 ± 0.46 |
| TAAATTGATATTGC T78A | -0.396 ± 0.15 | -0.018 ± 0.18 |
| TCAATTGATATTGC | 0.124 ± 0.1 | 2.16 ± 0.12 |
| ATTTAACTATAACG C36G | -1.16 ± 0.22 | 1.95 ± 0.11 |
| TACCTTGATATTGC | 1.35 ± 0.074 | 3.9016 ± 0.0014 |
| ATTTAACTATAACG A47T | -1.17 ± 0.26 | 1.84 ± 0.026 |
| GAAATTGATATTGC A62C | -0.604 ± 0.16 | 2.52 ± 0.065 |
| TAAATTGATATTGC C60G | 0.0119 ± 0.012 | 0.315 ± 0.03 |
| ATTTAACTATAACG T51A | -1.46 ± 0.28 | 2.29 ± 0.1 |
| ATTTAACTATAACG T51G | -1.67 ± 0.15 | 2.1 ± 0.14 |
| TAAATTGATATTGC A21G | -0.564 ± 0.14 | -1.31 ± 0.14 |
| TAAATTGATATTGC A21C | -0.283 ± 0.04 | -0.846 ± 0.23 |
| TAAATTGTAATTGC | -0.121 ± 0.11 | 1.88 ± 0.1 |
| TAAATTGATATTGC A49T | -0.47 ± 0.16 | 0.117 ± 0.012 |
| TAAATTGATATTGC T6A | -5.81 ± 0.51 | -5.94 ± 1.9 |
| TAAATTGATATTGC T25C | -0.146 ± 0.0084 | -0.488 ± 0.0056 |

| Variant | relative integration efficiency (log2) [1] | relative integration efficiency (log2) [2] |
| --- | --- | --- |
| TAAATACATATTGC | -0.637 ± 0.26 | 2.3 ± 0.041 |
| TAAAGGGATATTGC | -0.254 ± 0.0064 | 1.63 ± 0.069 |
| TAAATTGATAGGTA | -0.219 ± 0.01 | 1.09 ± 0.099 |
| TAATATGATATTGC | -0.0671 ± 0.049 | 0.438 ± 0.31 |
| TAAATTGATATTGC T28A | -0.215 ± 0.21 | 0.152 ± 0.12 |
| TATATTGATATCTC C59A | -0.231 ± 0.072 | -0.123 ± 0.17 |
| ATTTAACTATAACG T20G | -2 ± 0.4 | 0.721 ± 0.045 |
| ATTTAACTATAACG T20C | -1.47 ± 0.3 | 1.3 ± 0.48 |
| TAAATTGATGTTGC | -0.0405 ± 0.033 | 0.475 ± 0.053 |
| TAAATTGATATTGC A30G | -0.795 ± 0.13 | -0.2 ± 0.08 |
| TAAATTGATATTGC A30C | -0.623 ± 0.12 | -0.195 ± 0.17 |
| TAAATTGATATGTC | -0.17 ± 0.058 | 0.485 ± 0.25 |
| TAAATTGATATTGC G46A | -0.369 ± 0.054 | -0.642 ± 0.19 |
| TAAATTGATATTGC G46T | -0.423 ± 0.077 | -0.734 ± 0.14 |
| TAAATTGATATTGC G46C | -0.936 ± 0.067 | -0.847 ± 0.31 |
| TAAATTGATATTGC A1C | -0.117 ± 0.016 | -0.165 ± 0.27 |
| TAAATTGATATTGC A1T | -0.0487 ± 0.062 | -0.0517 ± 0.26 |
| TAAATTGATATTGC T9A | -0.0594 ± 0.085 | -0.234 ± 0.3 |
| TCCATTGATATTGC | -0.657 ± 0.14 | 2.16 ± 0.029 |

| Variant | relative integration efficiency (log2) [1] | relative integration efficiency (log2) [2] |
| --- | --- | --- |
| TAAATTGATATAGC | -0.0924 ± 0.038 | 0.0501 ± 0.056 |
| TAAATTGATATTGC T32G | -1.26 ± 0.063 | 0.729 ± 0.26 |
| TAAATTGATATTGC T32A | 0.933 ± 0.11 | 0.96 ± 0.14 |
| TAAATTGATATTGC A39G | -0.0861 ± 0.07 | -0.449 ± 0.17 |
| TAAATTGATATTGC A58T | -0.281 ± 0.054 | 1.17 ± 0.41 |
| TAAATACTAATTGC | -0.376 ± 0.27 | 2.61 ± 0.13 |
| TAAATTGATATTGC T12G | -0.147 ± 0.043 | -1.06 ± 0.57 |
| TAACGTGATATTGC | -0.0871 ± 0.004 | 0.67 ± 0.2 |
| TAAATTGATATTGC C14G | -0.477 ± 0.036 | -1.2 ± 0.21 |
| TAAATTGATATTGC A53G | -0.385 ± 0.25 | -0.269 ± 0.048 |
| TAAATTGATATTTC | -0.0163 ± 0.045 | -0.13 ± 0.15 |
| TAAATTGATATTTA | 0.1 ± 0.034 | 0.122 ± 0.099 |
| TAACGGTATATTGC | -0.559 ± 0.17 | 2.2 ± 0.3 |
| ATTTAACTATAACG T54G | -1.12 ± 0.37 | 2.49 ± 0.13 |
| ATTTAACTATAACG T54C | -1.04 ± 0.22 | 2.37 ± 0.24 |
| TAAATTGATAATGC | 0.111 ± 0.029 | 0.354 ± 0.21 |
| TAAATGTATATTGC | -0.000422 ± 0.028 | 2.416 ± 0.0088 |
| ATTTAACTATAACG | -0.618 ± 0.17 | 2.52 ± 0.22 |
